Experimental data published in article doi:10.1101/2021.02.03.429507.

Columns and labels:
[1] = molecular target: Core-binding region peptide of E-cad, AlexaFluor 488 at the C-terminus (mouse); experiment: two-focus FCS
[2] = molecular target: Core-binding region peptide of E-cad, AlexaFluor 488 at the N-terminus (mouse); experiment: two-focus FCS
[3] = molecular target: E-cad construct A (cytoplasmic tail of mouse E-cadherin, FRET labels on the N-terminal segment) (mouse) (UniProt P09803); experiment: single-molecule FRET
[4] = molecular target: E-cad construct B (cytoplasmic tail of mouse E-cadherin, FRET labels on the central segment) (mouse) (UniProt P09803); experiment: single-molecule FRET
[5] = molecular target: E-cad construct C (cytoplasmic tail of mouse E-cadherin, FRET labels on the C-terminal segment) (mouse) (UniProt P09803); experiment: single-molecule FRET

Kd [1]: > 1000 nM
Kd [2]: > 1000 nM
Kd [3]: 4 nM
Kd [4]: 4 nM
Kd [5]: 4 nM
Substance: Full-length murine beta-catenin (from UniProt Q02248 1-781) (natural protein)
